What was measured:
[1] = target: T1, human CD19 (human, UniProt P15391 20-556); test: flow cytometry on Ramos cells
T1 construct: whole, on cells; also called CD19 on Ramos cells; CD19 on Raji cells
T1 sequence (looked up): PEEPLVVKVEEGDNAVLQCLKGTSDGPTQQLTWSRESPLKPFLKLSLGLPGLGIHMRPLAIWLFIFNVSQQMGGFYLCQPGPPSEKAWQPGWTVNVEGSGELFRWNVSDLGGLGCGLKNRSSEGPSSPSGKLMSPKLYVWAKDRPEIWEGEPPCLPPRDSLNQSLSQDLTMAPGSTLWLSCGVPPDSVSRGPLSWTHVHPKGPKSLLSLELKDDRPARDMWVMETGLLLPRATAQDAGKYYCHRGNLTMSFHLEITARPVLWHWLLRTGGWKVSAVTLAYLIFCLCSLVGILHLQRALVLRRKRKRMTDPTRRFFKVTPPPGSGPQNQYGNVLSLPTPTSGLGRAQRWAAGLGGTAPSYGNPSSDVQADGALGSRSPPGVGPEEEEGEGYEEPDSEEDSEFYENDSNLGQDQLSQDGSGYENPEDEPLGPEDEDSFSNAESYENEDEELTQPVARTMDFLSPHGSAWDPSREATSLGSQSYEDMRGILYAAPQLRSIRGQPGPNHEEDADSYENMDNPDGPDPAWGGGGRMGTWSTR

[2] = target: T2, cynomolgus CD19 (cynomolgus monkey, UniProt A0A2K5W8L9 20-557); test: flow cytometry on CHO-K1 cells expressing cynomolgus CD19 (WBP701.CHO-K1.cpro1.FL.C9)
T2 construct: whole, on cells; also called monkey CD19; WBP701.CHO-K1.cpro1.FL.C9 cells
T2 sequence: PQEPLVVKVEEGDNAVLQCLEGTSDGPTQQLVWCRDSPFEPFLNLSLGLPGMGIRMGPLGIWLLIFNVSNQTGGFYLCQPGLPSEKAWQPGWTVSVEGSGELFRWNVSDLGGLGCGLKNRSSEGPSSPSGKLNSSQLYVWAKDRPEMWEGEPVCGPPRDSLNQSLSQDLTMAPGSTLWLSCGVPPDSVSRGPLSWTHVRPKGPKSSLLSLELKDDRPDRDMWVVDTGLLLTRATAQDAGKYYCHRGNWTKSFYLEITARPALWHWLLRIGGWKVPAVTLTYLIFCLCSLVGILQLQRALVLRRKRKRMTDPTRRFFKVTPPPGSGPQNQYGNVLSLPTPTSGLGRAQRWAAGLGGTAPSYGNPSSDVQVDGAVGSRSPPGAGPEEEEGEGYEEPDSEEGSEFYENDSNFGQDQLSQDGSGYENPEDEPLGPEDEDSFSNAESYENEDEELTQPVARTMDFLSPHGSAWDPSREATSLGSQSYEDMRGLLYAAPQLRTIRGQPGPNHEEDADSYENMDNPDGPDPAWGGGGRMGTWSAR
Description: Binding of the CD3×CD19 bispecific antibody to cynomoglus CD19 target protein expressed on CHOK1 cells was determined by flow cytometry analysis. In brief, cynomoglus CD19 over-expressed stable cell line (WBP701.CHOK1.cPro1.C9, WuXi Biologics) were harvested with trypsin and diluted to 1×10⁶ cells/ml in 1% BSA/1×PBS. 1×10⁵ cells/well (100 ul) were added to each well of a 96-well U-plate (Corning, #3799) and centrifuged at 1500 rpm (Eppendorf, #5810R) for 5 minutes before removing the supernatant. Antibodies serially diluted in 1% BSA/1×PBS were added at 100 µl/well to the pelleted cells and incubated at 4° C. for 1 hour. A non-related hIgG4 antibody was used as an isotype control. […] Pelleted cells were resuspended in 100 ul/well Fluorescence-labeled anti-human IgG Fc antibody (Jackson, #109-115-098) 1:150 diluted in 1% BSA/1×PBS for 30 minutes at 4° C. in the dark. […] After the final wash, cells were resuspended in 80 ul 1% BSA/1×PBS and fluorescence values were measured with a FACS Canto II cytometer (BD Biosciences). The amount of cell surface bound anti-CD19&CD3 bispecific antibody was assessed by measuring the mean fluorescence (MFI). The FACS raw data were analyzed by FlowJo software, wells containing no antibody or secondary antibody only were used to establish background fluorescence. […]

EC50 [1]: 15.6 nM
EC50 [2]: 26 nM
B1: W3438-T3U4.E17-1.uIgG4.SP (bispecific antibody)
light 1: DIVMTQSPDSLAVSLGERATINCKSSQSLLNSRTRKNYLAWYQQKPGQPPKLLIYWASTRQSGVPDRFSGSGSGTDFTLTISSLQAEDVAVYYCTQSHTLRTFGGGTKVEIKPDIQNPDPAVYQLRDSKSSDKSVCLFTDFDSQTQVSQSKDSDVYITDKCVLDMRSMDFKSNSAVAWSQKSDFACANAFQNSIIPEDTFFPSPESS
heavy 1: QVQLVQSGAEVKKPGSSVKVSCKASGFAFTDYYIHWVRQAPGQGLEWMGWISPGNVNTKYNENFKGRVTITADKSTSTAYMELSSLRSEDTAVYYCARDGYSLYYFDYWGQGTLVTVLEDLKNVFPPEVAVFEPSEAEISHTQKATLVCLATGFYPDHVELSWWVNGKEVHSGVCTDPQPLKEQPALQDSRYALSSRLRVSATFWQNPRNHFRCQVQFYGLSENDEWTQDRAKPVTQIVSAEAWGRYGPPCPPCPAPEFLGGPSVFLFPPKPKDTLMISRTPEVTCVVVDVSQEDPEVQFNWYVDGVEVHNAKTKPREEQFNSTYRVVSVLTVLHQDWLNGKEYKCKVSNKGLPSSIEKTISKAKGQPREPQVYTLPPCQEEMTKNQVSLWCLVKGFYPSDIAVEWESNGQPENNYKTTPPVLDSDGSFFLYSRLTVDKSRWQEGNVFSCSVMHEALHNHYTQKSLSLSLGK
light 2: DIQLTQSPSFLSASVGDRVTITCSASSTVNYMHWYQQKPGKAPKLLIYSTSNLASGVPSRFSGSGSGTEFTLTISSLQPEDFATYYCHQWSSYPYTFGQGTKLEIKRTVAAPSVFIFPPSDEQLKSGTASVVCLLNNFYPREAKVQWKVDNALQSGNSQESVTEQDSKDSTYSLSSTLTLSKADYEKHKVYACEVTHQGLSSPVTKSFNRGEC
heavy 2: QMQLVQSGPEVKKPGTSVKVSCKASGYAFTSYNMYWVRQARGQRLEWIGYIDPYNGDTTYNQKFKGRVTITRDMSTSTAYMELSSLRSEDTAVYYCLTTAYAMDYWGQGTLVTVSSASTKGPSVFPLAPCSRSTSESTAALGCLVKDYFPEPVTVSWNSGALTSGVHTFPAVLQSSGLYSLSSVVTVPSSSLGTKTYTCNVDHKPSNTKVDKRVESKYGPPCPPCPAPEFLGGPSVFLFPPKPKDTLMISRTPEVTCVVVDVSQEDPEVQFNWYVDGVEVHNAKTKPREEQFNSTYRVVSVLTVLHQDWLNGKEYKCKVSNKGLPSSIEKTISKAKGQPREPQVCTLPPSQEEMTKNQVSLSCAVKGFYPSDIAVEWESNGQPENNYKTTPPVLDSDGSFFLVSRLTVDKSRWQEGNVFSCSVMHEALHNHYTQKSLSLSLGK
notes: Bispecific, bivalent: one anti-CD3 arm with TCR constant domains and one native anti-CD19 Fab arm, IgG4 S228P Fc with knobs-into-holes; also called WBP3438; CD3×CD19 bispecific antibody; copies: 1 + 1 + 1 + 1
